Our source for the IC50, pseudovirus luciferase assay values is patent US20250002563A1.

This assay deals with SARS-CoV-2 spike on pseudotyped virus particles (Wuhan-Hu-1 strain) (SARS-CoV-2) (UniProt P0DTC2). Put plainly: cell-based or functional assay.

Substance homotrimeric Nb20 displayed an IC50, pseudovirus luciferase assay of 3 pM.
The same measure for homotrimeric Nb21: 1.3 pM.
